# Reference: PMC7483523, “Affinity of Skp to OmpC revealed by single-molecule detection” (Scientific Reports, 2020)
# T1: OmpC G8C-I232C, dual-labelled (UniProt P06996 22-367, G8C | I232C, dual-labelled with fluorescent dyes on the cysteines (dyes not named for this mutant))
# T1 construct: OmpC, outer membrane protein; plasmid pET28a-ompC as template; also called OmpC double mutant; source: E. coli BL21(DE3), purified (Ni-NTA) in 8 M urea
# T1 sequence (looked up): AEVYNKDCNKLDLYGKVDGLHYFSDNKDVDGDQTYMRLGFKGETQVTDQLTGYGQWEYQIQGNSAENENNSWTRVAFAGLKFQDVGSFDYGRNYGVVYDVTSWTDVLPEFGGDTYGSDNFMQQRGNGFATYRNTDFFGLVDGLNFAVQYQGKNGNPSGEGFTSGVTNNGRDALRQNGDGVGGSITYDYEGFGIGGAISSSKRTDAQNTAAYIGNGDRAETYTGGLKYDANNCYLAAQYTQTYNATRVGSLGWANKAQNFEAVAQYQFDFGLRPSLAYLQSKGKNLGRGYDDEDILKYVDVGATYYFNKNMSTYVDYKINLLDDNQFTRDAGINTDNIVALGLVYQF
# T2: OmpC G8C-L139C, dual-labelled (UniProt P06996 22-367, G8C | L139C, dual-labelled with fluorescent dyes on the cysteines (dyes not named for this mutant))
# T2 construct: OmpC, outer membrane protein; plasmid pET28a-ompC as template; also called OmpC double mutant; source: E. coli BL21(DE3), purified (Ni-NTA) in 8 M urea
# T2 sequence (looked up): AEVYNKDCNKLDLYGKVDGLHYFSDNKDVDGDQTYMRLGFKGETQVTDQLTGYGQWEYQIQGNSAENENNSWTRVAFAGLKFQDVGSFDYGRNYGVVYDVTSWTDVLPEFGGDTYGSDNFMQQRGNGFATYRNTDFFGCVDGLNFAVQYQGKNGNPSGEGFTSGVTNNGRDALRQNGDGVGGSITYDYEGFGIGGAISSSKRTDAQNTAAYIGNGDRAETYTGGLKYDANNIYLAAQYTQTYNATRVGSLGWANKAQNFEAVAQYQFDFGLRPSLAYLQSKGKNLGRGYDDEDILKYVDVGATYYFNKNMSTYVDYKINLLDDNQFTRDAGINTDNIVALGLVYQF
# T3: OmpC·Skp3 complex (dual-labelled OmpC G8C-D335C with wild-type Skp) (UniProt P06996 22-367; P0AEU7 21-161, G8C | D335C, fluorescent dyes AF555 and AF647 (maleimide) on the cysteines)
# T3 construct: OmpC, as the chain of m4; Skp, as the chain of m1; source: formed in the sample from purified urea-denatured OmpC G8C-D335C (50 pM) and purified wild-type Skp; copies: 1 + 3
# T3 sequence 1: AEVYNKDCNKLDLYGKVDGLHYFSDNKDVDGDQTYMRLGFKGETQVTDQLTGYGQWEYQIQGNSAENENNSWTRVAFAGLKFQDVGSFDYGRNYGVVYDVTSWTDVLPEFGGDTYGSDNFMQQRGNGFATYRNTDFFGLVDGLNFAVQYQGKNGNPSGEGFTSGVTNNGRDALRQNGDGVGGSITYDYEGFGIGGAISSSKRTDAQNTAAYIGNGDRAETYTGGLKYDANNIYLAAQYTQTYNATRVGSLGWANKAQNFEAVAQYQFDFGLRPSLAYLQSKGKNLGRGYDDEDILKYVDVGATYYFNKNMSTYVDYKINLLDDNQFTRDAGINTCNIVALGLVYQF
# T3 sequence 2: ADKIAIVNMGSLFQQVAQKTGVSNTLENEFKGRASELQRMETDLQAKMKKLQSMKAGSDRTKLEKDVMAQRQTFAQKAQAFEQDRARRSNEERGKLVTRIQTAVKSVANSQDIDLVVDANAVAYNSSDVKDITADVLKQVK
# T4: OmpC G8C-D335C labelled with AF555 and AF647 (UniProt P06996 22-367, G8C | D335C, fluorescent dyes AF555 and AF647 (maleimide) on the cysteines)
# T4 construct: OmpC, outer membrane protein; plasmid pET28a-ompC as template; Unfolded OmpC, diluted from urea; Residue numbers fit the mature protein without its signal peptide (surmised); also called dual-labelled OmpC; intramolecular labelled OmpC G8C-D335C; source: E. coli BL21(DE3), purified (Ni-NTA) in 8 M urea; diluted from 8 M urea into the sample
# T4 sequence (looked up): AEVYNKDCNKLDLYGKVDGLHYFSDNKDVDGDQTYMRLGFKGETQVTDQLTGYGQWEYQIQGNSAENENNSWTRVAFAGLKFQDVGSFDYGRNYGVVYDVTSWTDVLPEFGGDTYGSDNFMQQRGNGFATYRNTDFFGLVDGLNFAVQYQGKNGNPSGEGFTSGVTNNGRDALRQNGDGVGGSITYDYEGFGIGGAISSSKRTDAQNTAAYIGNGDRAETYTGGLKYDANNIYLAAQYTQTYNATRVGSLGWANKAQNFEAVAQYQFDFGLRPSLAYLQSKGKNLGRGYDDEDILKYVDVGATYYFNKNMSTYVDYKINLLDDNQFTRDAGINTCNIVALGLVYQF
# T5: OmpC G8C-AF555 with an AviTag on the C-terminus, biotinylated (UniProt P06996 22-367, G8C, AF555 (maleimide) on the cysteine of G8C; biotin on the AviTag's lysine side chain)
# T5 construct: OmpC, outer membrane protein; plasmid pET28a-ompC as template; Held on a streptavidin surface by the biotin of the AviTag; also called biotinylated OmpC; source: E. coli BL21(DE3), purified (Ni-NTA) in 8 M urea; biotinylated by BirA
# T5 sequence (looked up): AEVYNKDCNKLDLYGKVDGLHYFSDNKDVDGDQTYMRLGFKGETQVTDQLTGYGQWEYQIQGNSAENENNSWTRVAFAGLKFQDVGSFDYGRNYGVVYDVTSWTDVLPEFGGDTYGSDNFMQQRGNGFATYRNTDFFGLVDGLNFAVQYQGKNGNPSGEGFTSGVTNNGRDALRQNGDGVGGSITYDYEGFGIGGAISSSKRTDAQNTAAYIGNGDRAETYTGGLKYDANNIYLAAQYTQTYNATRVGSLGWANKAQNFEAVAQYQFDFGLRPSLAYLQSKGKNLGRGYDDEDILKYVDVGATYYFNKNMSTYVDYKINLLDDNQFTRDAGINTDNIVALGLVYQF
# Tests used:
# [1] = target: T1, OmpC G8C-I232C, dual-labelled; test: smFRET (intramolecular, on dual-labelled OmpC); 50 pM dual-labelled OmpC diluted from 8 M urea into micromolar wild-type Skp, buffer C, 0.02% tween 20, 23 °C; peak areas of Eapp 0.1 and 0.3 fitted against [Skp]0; details: both partners purified
# [2] = target: T2, OmpC G8C-L139C, dual-labelled; test: as above; details: both partners purified
# [3] = target: T3, OmpC·Skp3 complex (dual-labelled OmpC …); test: as above; details: both partners purified
# [4] = target: the molecule itself; test: fluorescence correlation spectroscopy (FCS); trimer to monomers; 0.4 nM Skp D128C-Cy3B as tracer in wild-type Skp of various concentrations, denatured by 4 M urea and diluted 100-fold in buffer C (50 mM PB, 100 mM NaCl, pH 7.0), 0.02% tween 20, 23 °C; effective stoichiometric number from the diffusion time fitted against [Skp]0
# [5] = target: T4, OmpC G8C-D335C labelled with AF555 and …; test: pscFCS (portion-selectively-chosen FCS on smFRET subpopulations); 50 pM dual-labelled OmpC diluted from 8 M urea into wild-type Skp at subnanomolar to nanomolar concentrations, buffer C, 0.02% tween 20, 23 °C; diffusion times of bound and unbound OmpC compared in the same sample; details: both partners purified
# [6] = target: T5, OmpC G8C-AF555 with an AviTag on the …; test: TIRF colocalization (single molecule); apparent; biotinylated OmpC G8C-AF555 (50 pM) immobilised on a streptavidin coverslip; Skp D128C-AF647 from 500 pM to 8 nM in buffer C, 0.02% tween 20, oxygen scavenging system, 23 °C; alternating laser excitation 532 and 640 nm; details: both partners purified
binder,measurement,setting,value
"wild-type Skp (natural protein, Skp, periplasmic chaperone of gram-negative bacteria; plasmid pET28a-skp; In equilibrium between monomer and homotrimer (Skp3); concentrations are counted in Skp monomer; The printed mass of the labelled His-tagged mutant (18.8 kD) and the residue number D128 fit the mature protein without its signal peptide (surmised); also called Skp3 (trimer); Skp monomer; source: E. coli BL21(DE3) pLysS, …) ADKIAIVNMGSLFQQVAQKTGVSNTLENEFKGRASELQRMETDLQAKMKKLQSMKAGSDRTKLEKDVMAQRQTFAQKAQAFEQDRARRSNEERGKLVTRIQTAVKSVANSQDIDLVVDANAVAYNSSDVKDITADVLKQVK",binding result,[1],binds
same,binding result,[2],binds
same,Kd,[3],1200 ± 400 nM
same,stoichiometry N,[4],3
same,stoichiometry N,[5],2.8 ± 0.4 Skp:OmpC
"Skp D128C-AF647 (natural protein, AF647 (maleimide) on the cysteine of D128C, Skp; plasmid pET28a-skp as template; source: E. coli BL21(DE3) pLysS, purified (Ni-NTA, desalting), labelled in 4 M urea; not shown: His-tag, N-terminal, kept) ADKIAIVNMGSLFQQVAQKTGVSNTLENEFKGRASELQRMETDLQAKMKKLQSMKAGSDRTKLEKDVMAQRQTFAQKAQAFEQDRARRSNEERGKLVTRIQTAVKSVANSQDIDLVVDANAVAYNSSCVKDITADVLKQVK",Kd,[6],0.55 nM
same,stoichiometry N,[6],3
